Assay [1] deals with T1, Upstream Binding Transcription Factor (UBF), recombinant, P17480.
T1 chain: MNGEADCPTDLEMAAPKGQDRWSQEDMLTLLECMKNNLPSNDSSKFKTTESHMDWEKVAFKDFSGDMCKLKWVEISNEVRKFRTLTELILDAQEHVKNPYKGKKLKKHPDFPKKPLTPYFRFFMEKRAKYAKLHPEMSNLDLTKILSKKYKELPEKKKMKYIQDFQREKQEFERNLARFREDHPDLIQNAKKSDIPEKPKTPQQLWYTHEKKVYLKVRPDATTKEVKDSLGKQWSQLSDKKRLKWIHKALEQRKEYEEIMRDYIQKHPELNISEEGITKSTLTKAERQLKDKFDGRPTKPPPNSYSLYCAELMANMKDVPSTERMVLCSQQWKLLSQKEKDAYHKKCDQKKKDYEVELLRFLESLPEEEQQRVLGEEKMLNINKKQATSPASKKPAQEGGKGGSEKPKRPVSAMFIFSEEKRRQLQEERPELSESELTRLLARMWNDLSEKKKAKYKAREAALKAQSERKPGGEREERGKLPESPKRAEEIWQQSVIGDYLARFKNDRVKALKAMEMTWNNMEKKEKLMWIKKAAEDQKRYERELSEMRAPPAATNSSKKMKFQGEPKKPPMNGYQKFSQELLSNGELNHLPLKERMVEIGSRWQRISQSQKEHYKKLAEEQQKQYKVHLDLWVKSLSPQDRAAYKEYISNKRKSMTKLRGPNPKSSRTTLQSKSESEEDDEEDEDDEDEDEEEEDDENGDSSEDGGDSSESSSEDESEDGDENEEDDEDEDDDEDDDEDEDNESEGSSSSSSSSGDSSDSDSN
Put plainly: mass photometry. The conditions noted are these: remark: other sources report otherwise.

The target in assay [2] is T1, Upstream Binding Transcription Factor …. Put plainly: SDS-PAGE without sample heating, with densitometry. The following applies: remark: other sources report otherwise.

B1: Upstream Binding Transcription Factor (UBF), recombinant, P17480 1-764 (natural protein)
chain: T1 chain
As for B1, the stoichiometry N in assay [1] and in assay [2] was 4 in each case.
